The values below come from patent US20170058008A1 (SYNGENTA PARTICIPATIONS, published 2017).

Test [1] deals with ATP synthase α from S. frugiperda (native) (S. frugiperda). Kind of test: cell-based or functional assay.
The target of test [2] is ATP synthase β from S. frugiperda (native) (S. frugiperda). Kind of test: cell-based or functional assay.
Test [3] addresses Hsc70 from S. frugiperda (native) (S. frugiperda). Kind of test: cell-based or functional assay.
In test [4] the target is ATP synthase α + β of Sf9 cells (native, both silenced together) (S. frugiperda). Kind of test: cell-based or functional assay.
Test [5] has as its target Hsc70 and serpin, co-expressed in Drosophila S2 cells (S. frugiperda; M. sexta) (UniProt Q9U639). Kind of test: cell-based or functional assay.
The target of test [6] is Hsc70, cadherin from M. sexta, and aminopeptidase-N (APN) from M. sexta, co-expressed in Drosophila S2 cells (S. frugiperda; M. sexta). Kind of test: cell-based or functional assay.
In test [7] the target is cell surface displayed serpin from M. sexta (yeast display, pYD1) (M. sexta). Kind of test: biopanning of a yeast surface-displayed M. sexta cDNA library with biotinylated trypsinized Vip3A; none out of twenty clones in the control without bVip3A/T.
Test [8] concerns the target T1, V5-tagged Cry1Ab (UniProt P0A370 29-607, limits assumed).
T1 construct: not shown: V5 tag
Kind of test: fluorescent confocal microscopy, co-localization on transfected Sf9 cells.

Test [9] deals with biotin labeled Cry1Ab (UniProt P0A370 29-607, biotin labeled (sites not given)). Kind of test: Far-Western blot, V5-enriched protein on PVDF probed with biotin labeled Cry1Ab.

Turning to Vip3A, in [1], the Mortality (%) Day 2, FAW larvae pretreated with dsRNA for the target, Vip3A at 100 ng/cm^2 is 12.5%; the Mortality (%) Day 6, FAW larvae pretreated with dsRNA for the target, Vip3A at 100 ng/cm^2 was 12.5%; the Mortality (%) Day 10, FAW larvae pretreated with dsRNA for the target, Vip3A at 100 ng/cm^2 came to 37.5%. In test [2], the Mortality (%) Day 2, FAW larvae pretreated with dsRNA for the target, Vip3A at 100 ng/cm^2 was determined as 0%; the Mortality (%) Day 6, FAW larvae pretreated with dsRNA for the target, Vip3A at 100 ng/cm^2 stood at 15.4%; the Mortality (%) Day 10, FAW larvae pretreated with dsRNA for the target, Vip3A at 100 ng/cm^2 was determined as 53.9%. Moreover, in test [3], the Mortality (%) Day 2, FAW larvae pretreated with dsRNA for the target, Vip3A at 100 ng/cm^2 turned out to be 0%; the Mortality (%) Day 6, FAW larvae pretreated with dsRNA for the target, Vip3A at 100 ng/cm^2 amounted to 0%; the Mortality (%) Day 10, FAW larvae pretreated with dsRNA for the target, Vip3A at 100 ng/cm^2 is 6.25%.
For trypsinized Vip3A, the percent reduction of cell viability, Sf9 cells with the target silenced by dsRNA, 200 nM trypsinized Vip3A (GFP dsRNA control 30.055) in test [4] is 0.986%. The percent reduction of cell viability, Sf9 cells with the target silenced by dsRNA, 200 nM trypsinized Vip3A (GFP dsRNA control 30.055) in test [1] came out at 0.99%. Moreover, the percent reduction of cell viability, Sf9 cells with the target silenced by dsRNA, 200 nM trypsinized Vip3A (GFP dsRNA control 30.055) in test [2] came to 22.7%. In test [5], this molecule registered a % of dead cells, co-transfected S2 cells, 0 nM Vip3A of 1.5%; a % of dead cells, co-transfected S2 cells, 25 nM Vip3A of 6%; a % of dead cells, co-transfected S2 cells, 50 nM Vip3A of 17%; a % of dead cells, co-transfected S2 cells, 100 nM Vip3A of 34%. Besides, in test [5], the % of dead cells, co-transfected S2 cells, 200 nM Vip3A was 64%; the % of dead cells, co-transfected S2 cells, 400 nM Vip3A amounted to 81%; the % of dead cells, co-transfected S2 cells, 800 nM Vip3A was 96%. This molecule also returned a percent reduction of cell viability, Sf9 cells with the target silenced by dsRNA, 200 nM trypsinized Vip3A (GFP dsRNA control 30.055) in [3] of 17.1%. For the same molecule, in test [6], the % of dead cells, co-transfected S2 cells, 0 nM Vip3A is 4%; the % of dead cells, co-transfected S2 cells, 25 nM Vip3A was 3%; the % of dead cells, co-transfected S2 cells, 50 nM Vip3A is 7%; the % of dead cells, co-transfected S2 cells, 100 nM Vip3A came out at 6%. For the same molecule, in [6], the % of dead cells, co-transfected S2 cells, 200 nM Vip3A worked out at 9%; the % of dead cells, co-transfected S2 cells, 400 nM Vip3A came out at 10%; the % of dead cells, co-transfected S2 cells, 800 nM Vip3A was 8%. In test [7], this molecule came in with a share of sequenced clones carrying the serpin gene after seven rounds of selection of 45%.

B1: ATP synthase α from S. frugiperda, V5/6xHis-tagged (pIZT/V5-His) (other, not shown: small tags and cut ends)
chain: MSLISARIAGSVARRLPNAASQVSKVAGVAAPAVAVASRNFHVSPTQKAAEISTILEERILGAAPKADLEETGRVLSIGDGIARVYGLKNIQAEEMVEFSSGLKGMALNLEPDNVGVVVFGNDKLIKEGDIVKRTGAIVDVPVGEQLLGRVVDALGNAIDGKGPIDTKSRMRVGIKAPGIIPRVSVREPMQTGIKAVDSLVPIGRGQRELIIGDRQTGKTALAIDTIINQQRFNKGQDEKKKLYCIYVAIGQKRSTVAQIVKRLTDAGAINYTIIVSRTASDAAPLQYLAPYSGCAMGEFFRDNGKHALIIYDDLSKQAVAYRQMSLLLRRPPGREAYPGDVFYLHSRLLERAAKMSDKMGGGSLTALPVIETQAGDVSAYIPTNVISITDGQIFLETELFYKGIRPAINVGLSVSRVGSAAQTKAMKQVAGSMKLELAQYREVAAFAQFGSDLDAATQQLLNRGMRLTELLKQGQYVPMAIEEQVAIIYCGVRGHLDKLDPSKITGFEKEFTQHIKTSHQGLLATIAKDGQITPESDAALKKIVTDFLATFTQSQ
notes: Expressed in Sf9 cells
For the molecule B1, the binding result in [8] is on record as “no binding (tested: 200 nM)”; in [9], “no binding”.
